Patent US10704030B2, “P450-BM3 variants with improved activity” (Codexis, Inc., priority 2015, dated 2020)

Assays:
Type in all cases: biochemical
[1] = Validation of generalist properties: oxidation of gefitinib by lyophilized P450-BM3 variant, UPLC-MS; details: [Gefitinib] = 1 mM; for TON: TON = [substrate]*% conversion/[P450]; for FIOPC (F02): fold improvement over parent MCYP-P1.2-F02
In short: (§1)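 Lyophilized lysate of E. coli-expressed P450-BM3 variant (stock standardized to 12 μM heme) was incubated 24 h at 30 °C with 1 or 2 mM substrate, 1.0 mM NADP+, 25 mM glucose, 0.5 mg/mL glucose dehydrogenase and 5% DMSO in 100 mM potassium phosphate. Acetonitrile-quenched samples were analyzed by UPLC-MS (positive ESI).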

[2] = Validation of generalist properties: oxidation of imatinib by lyophilized P450-BM3 variant, UPLC-MS; details: [Imatinib] = 1 mM; for TON: TON = [substrate]*% conversion/[P450]; for FIOPC (F02): fold improvement over parent MCYP-P1.2-F02
In short: as §1

[3] = Validation of generalist properties: oxidation of loratadine by lyophilized P450-BM3 variant, UPLC-MS; details: [Loratadine] = 1 mM; for TON: TON = [substrate]*% conversion/[P450]; for FIOPC (F02): fold improvement over parent MCYP-P1.2-F02
In short: as §1

[4] = Validation of generalist properties: oxidation of diclofenac by lyophilized P450-BM3 variant, UPLC-MS; details: [Diclofenac] = 1 mM; for TON: TON = [substrate]*% conversion/[P450]; for FIOPC (F02): fold improvement over parent MCYP-P1.2-F02
In short: as §1

Molecule	% Conv. [1]	TON [1]	% Conv. [2]	TON [2]	% Conv. [3]	TON [3]	% Conv. [4]	TON [4]	FIOPC (F02) [1]	FIOPC (F02) [2]	FIOPC (F02) [3]	FIOPC (F02) [4]
SEQ ID NO:16: P450-BM3 parental backbone from the commercially available MCYP panel (MCYP-0343; Codexis) (protein, P450_BM3) MTIKEMPQPKTFGELKNLPLLNTDKPVQALMKIADELGEIFKFEAPGCVTRYLSSQRLIKEACDESRFDKNLSQALKFARDFLGDGLVTSWTHEINWKKAHNILLPSFSQQAMKGYHAMMVDIAVQLVQKWERLNADEHIEVSEDMTRLTLDTIGLCGFNYRFNSFYRDQPHPFIISMVRALDEVMNKLQRANPDDPAYDENKRQCQEDIKVMNDLVDKIIADRKARGEQSDDLLTQMLNGKDPETGEPLDDGNISYQIITFLIAGHETTSGLLSFALYFLVKNPHVLQKVAEEAARVLVDPVPSYKQVKQLKYVGMVLNEALRLWPTAPAFSLYAKEDTVLGGEYPLEKGDEVMVLIPQLHRDKTIWGDDVEEFRPERFENPSAIPQHAFKPFGNGQRACIGQQFALHEATLVLGMMLKHFDFEDHTNYELDIKETLTLKPEGFVVKAKSKKIPLGGIPSPSTEQSAKKVRKKAENAHNTPLLVLYGSNMGTAEGTARDLADIAMSKGFAPQVATLDSHAGNLPREGAVLIVTASYNGHPPDNAKQFVDWLDQASADEVKGVRYSVFGCGDKNWATTYQKVPAFIDETLAAKGAENIADRGEADASDDFEGTYEEWREHMWSDVAAYFNLDIENSEDNKSTLSLQFVDSAADMPLAKMHGAFSTNVVASKELQQPGSARSTRHLEIELPKEASYQEGDHLGVIPRNYEGIVNRVTARFGLDASQQIRLEAEEEKLAHLPLAKTVSVEELLQYVELQDPVTRTQLRAMAAKTVCPPHKVELEALLEKQAYKEQVLAKRLTMLELLEKYPACEMKFSEFIALLPSIRPRYYSISSSPRVDEKQASITVSVVSGEAWSGYGEYKGIASNYLAELQEGDTITCFISTPQSEFTLPKDPETPLIMVGPGTGVAPFRGFVQARKQLKEQGQSLGEAHLYFGCRSPHEDYLYQEELENAQSEGIITLHTAFSRMPNQPKTYVQHVMEQDGKKLIELLDQGAHFYICGDGSQMAPAVEATLMKSYADVHQVSEADARLWLQQLEEKGRYAKDVWAG	+ (0-5.00)	‡‡ (1001-5000)	+ (0-5.00)	‡‡ (1001-5000)	+++ (10.01-15.00)	‡‡‡ (5001-10000)	++++ (15.01-20.00)	‡‡‡‡ (10000-50000)	–	–	–	–
SEQ ID NO: 14: P450-BM3 parental backbone from the commercially available MCYP panel (MCYP-0343; Codexis) (protein, P450_BM3) MTIKEMPQPKTFGELKNLPLLNTDKPVQALMKIADELGEIFKFEAPGLVTRYLSSQRLIKEACDESRFDKNLSQALKFARDFAGDGLFTSWTHEKNWKKAHNILLPSFSQQAMKGYHAMMVDIAVQLVQKWERLNADEHIEVPEDMTRLTLDTIGLCGFNYRFNSFYRDQPHPFITSMVRALDEAMNKQQRANPDDPAYDENKRQFQEDIKVMNDLVDKIIADRKASGEQSDDLLTHMLNGKDPETGEPLDDENIRYQIITFLIAGHETTSGLLSFALYFLVKNPHVLQKAAEEAARVLVDPVPSYKQVKQLKYVGMVLNEALRLWPTAPAFSLYAKEDTVLGGEYPLEKGDELMVLIPQLHRDKTIWGDDVEEFRPERFENPSAIPQHAFKPFGNGQRACIGQQFALHEATLVLGMMLKHFDFEDHTNYELDIKETLTLKPEGFVVKAKSKKIPLGGIPSPSTEQSAKKVRKKAENAHNTPLLVLYGSNMGTAEGTARDLADIAMSKGFAPQVATLDSHAGNLPREGAVLIVTASYNGHPPDNAKQFVDWLDQASADEVKGVRYSVFGCGDKNWATTYQKVPAFIDETLAAKGAENIADRGEADASDDFEGTYEEWREHMWSDVAAYFNLDIENSEDNKSTLSLQFVDSAADMPLAKMHGAFSTNVVASKELQQPGSARSTRHLEIELPKEASYQEGDHLGVIPRNYEGIVNRVTARFGLDASQQIRLEAEEEKLAHLPLAKTVSVEELLQYVELQDPVTRTQLRAMAAKTVCPPHKVELEALLEKQAYKEQVLAKRLTMLELLEKYPACEMKFSEFIALLPSIRPRYYSISSSPRVDEKQASITVSVVSGEAWSGYGEYKGIASNYLAELQEGDTITCFISTPQSEFTLPKDPETPLIMVGPGTGVAPFRGFVQARKQLKEQGQSLGEAHLYFGCRSPHEDYLYQEELENAQSEGIITLHTAFSRMPNQPKTYVQHVMEQDGKKLIELLDQGAHFYICGDGSQMAPAVEATLMKSYADVHQVSEADARLWLQQLEEKGRYAKDVWAG	+ (0-5.00)	‡ (0-1000)	+ (0-5.00)	‡‡ (1001-5000)	+ (0-5.00)	‡‡ (1001-5000)	+ (0-5.00)	‡ (0-1000)	–	–	–	–
Variant 1: P450-BM3 variant of SEQ ID NO: 14: Y52F; K95P; G115R; T176V; L216Y; D232H; E349T; M491A; T577A; E619D (protein, P450_BM3, K95P; G115R; T176V; L216Y; D232H; E349T; M491A; T577A; E619D) MTIKEMPQPKTFGELKNLPLLNTDKPVQALMKIADELGEIFKFEAPGLVTRFLSSQRLIKEACDESRFDKNLSQALKFARDFAGDGLFTSWTHEPNWKKAHNILLPSFSQQAMKRYHAMMVDIAVQLVQKWERLNADEHIEVPEDMTRLTLDTIGLCGFNYRFNSFYRDQPHPFIVSMVRALDEAMNKQQRANPDDPAYDENKRQFQEDIKVMNDYVDKIIADRKASGEQSHDLLTHMLNGKDPETGEPLDDENIRYQIITFLIAGHETTSGLLSFALYFLVKNPHVLQKAAEEAARVLVDPVPSYKQVKQLKYVGMVLNEALRLWPTAPAFSLYAKEDTVLGGEYPLTKGDELMVLIPQLHRDKTIWGDDVEEFRPERFENPSAIPQHAFKPFGNGQRACIGQQFALHEATLVLGMMLKHFDFEDHTNYELDIKETLTLKPEGFVVKAKSKKIPLGGIPSPSTEQSAKKVRKKAENAHNTPLLVLYGSNAGTAEGTARDLADIAMSKGFAPQVATLDSHAGNLPREGAVLIVTASYNGHPPDNAKQFVDWLDQASADEVKGVRYSVFGCGDKNWAATYQKVPAFIDETLAAKGAENIADRGEADASDDFEGTYEEWRDHMWSDVAAYFNLDIENSEDNKSTLSLQFVDSAADMPLAKMHGAFSTNVVASKELQQPGSARSTRHLEIELPKEASYQEGDHLGVIPRNYEGIVNRVTARFGLDASQQIRLEAEEEKLAHLPLAKTVSVEELLQYVELQDPVTRTQLRAMAAKTVCPPHKVELEALLEKQAYKEQVLAKRLTMLELLEKYPACEMKFSEFIALLPSIRPRYYSISSSPRVDEKQASITVSVVSGEAWSGYGEYKGIASNYLAELQEGDTITCFISTPQSEFTLPKDPETPLIMVGPGTGVAPFRGFVQARKQLKEQGQSLGEAHLYFGCRSPHEDYLYQEELENAQSEGIITLHTAFSRMPNQPKTYVQHVMEQDGKKLIELLDQGAHFYICGDGSQMAPAVEATLMKSYADVHQVSEADARLWLQQLEEKGRYAKDVWAG	+ (0-5.00)	‡ (0-1000)	++++ (15.01-20.00)	‡‡‡‡ (10000-50000)	+ (0-5.00)	‡‡ (1001-5000)	+ (0-5.00)	‡‡ (1001-5000)	* (0.0-3.0)	**** (10.01-15.00)	* (0.0-3.0)	**** (10.01-15.00)
Variant 2: P450-BM3 variant of SEQ ID NO: 14: Y52F; G115R; T176V; L216Y; D232H; P347T; E349T; T577A; D722S (protein, P450_BM3, G115R; T176V; L216Y; D232H; P347T; E349T; T577A; D722S) MTIKEMPQPKTFGELKNLPLLNTDKPVQALMKIADELGEIFKFEAPGLVTRFLSSQRLIKEACDESRFDKNLSQALKFARDFAGDGLFTSWTHEKNWKKAHNILLPSFSQQAMKRYHAMMVDIAVQLVQKWERLNADEHIEVPEDMTRLTLDTIGLCGFNYRFNSFYRDQPHPFIVSMVRALDEAMNKQQRANPDDPAYDENKRQFQEDIKVMNDYVDKIIADRKASGEQSHDLLTHMLNGKDPETGEPLDDENIRYQIITFLIAGHETTSGLLSFALYFLVKNPHVLQKAAEEAARVLVDPVPSYKQVKQLKYVGMVLNEALRLWPTAPAFSLYAKEDTVLGGEYTLTKGDELMVLIPQLHRDKTIWGDDVEEFRPERFENPSAIPQHAFKPFGNGQRACIGQQFALHEATLVLGMMLKHFDFEDHTNYELDIKETLTLKPEGFVVKAKSKKIPLGGIPSPSTEQSAKKVRKKAENAHNTPLLVLYGSNMGTAEGTARDLADIAMSKGFAPQVATLDSHAGNLPREGAVLIVTASYNGHPPDNAKQFVDWLDQASADEVKGVRYSVFGCGDKNWAATYQKVPAFIDETLAAKGAENIADRGEADASDDFEGTYEEWREHMWSDVAAYFNLDIENSEDNKSTLSLQFVDSAADMPLAKMHGAFSTNVVASKELQQPGSARSTRHLEIELPKEASYQEGDHLGVIPRNYEGIVNRVTARFGLSASQQIRLEAEEEKLAHLPLAKTVSVEELLQYVELQDPVTRTQLRAMAAKTVCPPHKVELEALLEKQAYKEQVLAKRLTMLELLEKYPACEMKFSEFIALLPSIRPRYYSISSSPRVDEKQASITVSVVSGEAWSGYGEYKGIASNYLAELQEGDTITCFISTPQSEFTLPKDPETPLIMVGPGTGVAPFRGFVQARKQLKEQGQSLGEAHLYFGCRSPHEDYLYQEELENAQSEGIITLHTAFSRMPNQPKTYVQHVMEQDGKKLIELLDQGAHFYICGDGSQMAPAVEATLMKSYADVHQVSEADARLWLQQLEEKGRYAKDVWAG	+ (0-5.00)	‡ (0-1000)	++++ (15.01-20.00)	‡‡‡‡ (10000-50000)	+ (0-5.00)	‡‡ (1001-5000)	+ (0-5.00)	‡‡ (1001-5000)	* (0.0-3.0)	**** (10.01-15.00)	* (0.0-3.0)	**** (10.01-15.00)
